# Reference: patent publication US20250276070A1
# Molecular target: hFcRn/β2-microglobulin complex (human) (UniProt P55899)
# Assay: BLI, His-tagged hFcRn/b2m on Ni-NTA, pH 5.6
# Sequence of hFcRn/β2-microglobulin complex (human) (P55899 24-297 limits assumed, chain 1 of 2): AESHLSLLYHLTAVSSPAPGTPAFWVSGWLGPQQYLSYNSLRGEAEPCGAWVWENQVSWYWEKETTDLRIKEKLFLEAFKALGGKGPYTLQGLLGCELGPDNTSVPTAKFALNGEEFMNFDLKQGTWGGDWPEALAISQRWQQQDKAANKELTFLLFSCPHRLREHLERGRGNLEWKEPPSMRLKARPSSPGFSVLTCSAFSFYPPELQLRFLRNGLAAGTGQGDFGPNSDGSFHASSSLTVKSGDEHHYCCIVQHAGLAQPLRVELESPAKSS
# Sequence of hFcRn/β2-microglobulin complex (human) (P61769 21-119 limits assumed, chain 2 of 2, further chain): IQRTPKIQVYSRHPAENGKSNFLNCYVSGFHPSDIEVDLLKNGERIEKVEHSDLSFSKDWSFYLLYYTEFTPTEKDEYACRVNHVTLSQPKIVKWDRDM
substance,measurement,value
T-01 MB IgG1 I253V,fold higher affinity than the IgG1 control,> 1000 fold
